Measured values: patent publication US20230192902A1 (published 2023)
Where two headings read alike, the source gives them in different places.

T1: human ABCG2 (UniProt Q9UNQ0 1-655)
T1 chain: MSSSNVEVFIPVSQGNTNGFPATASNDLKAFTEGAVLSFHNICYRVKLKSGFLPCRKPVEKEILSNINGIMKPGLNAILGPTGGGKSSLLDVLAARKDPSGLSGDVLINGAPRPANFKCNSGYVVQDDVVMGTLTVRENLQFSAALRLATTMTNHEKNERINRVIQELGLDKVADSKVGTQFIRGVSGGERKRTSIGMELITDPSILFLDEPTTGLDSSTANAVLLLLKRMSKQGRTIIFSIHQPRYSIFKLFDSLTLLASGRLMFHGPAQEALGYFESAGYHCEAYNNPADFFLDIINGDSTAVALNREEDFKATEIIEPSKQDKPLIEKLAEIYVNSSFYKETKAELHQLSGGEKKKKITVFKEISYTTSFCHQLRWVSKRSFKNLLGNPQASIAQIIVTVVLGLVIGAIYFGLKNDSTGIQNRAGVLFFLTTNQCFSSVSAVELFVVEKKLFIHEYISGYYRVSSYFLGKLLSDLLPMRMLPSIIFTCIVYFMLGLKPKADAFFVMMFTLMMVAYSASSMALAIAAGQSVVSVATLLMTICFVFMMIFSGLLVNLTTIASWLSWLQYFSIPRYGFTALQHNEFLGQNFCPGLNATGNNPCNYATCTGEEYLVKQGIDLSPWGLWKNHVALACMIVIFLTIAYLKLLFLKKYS


Assays:
human ABCG2 [1] = target: T1, human ABCG2; experiment: flow cytometry cell binding; 293T-G2OX cells
human PD-L1 = human PD-L1 (human, UniProt Q9NZQ7 19-290); experiment: flow cytometry cell binding; 293T-KT9OX cells
human ABCG2 [2] = target: T1, human ABCG2; experiment: flow cytometry cell binding; 293T-G2OX cells
293T-G2KT9OX = experiment: flow cytometry cell binding; cells expressing both ABCG2 and PD-L1

Sequence of human PD-L1 (Q9NZQ7 19-290): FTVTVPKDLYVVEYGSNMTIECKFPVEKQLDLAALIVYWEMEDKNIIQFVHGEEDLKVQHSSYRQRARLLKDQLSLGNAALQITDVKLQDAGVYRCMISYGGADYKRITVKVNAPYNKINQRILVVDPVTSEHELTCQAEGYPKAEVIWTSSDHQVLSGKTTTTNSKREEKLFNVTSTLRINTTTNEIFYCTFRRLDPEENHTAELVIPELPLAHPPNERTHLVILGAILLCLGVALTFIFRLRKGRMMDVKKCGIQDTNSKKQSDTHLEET

EC50 (human ABCG2 [2]) [nM] | Binder | also measured
 | 5D3hVH-v1DD KT9KK 5D3hVL-v1 (bispecific antibody, V domains shown) VH 1: EVQLQESGPGLVKPSETLSLTCTVSGFSITSDYAWNWIRQPPGKGLEWMGYINFDGGTTYNPSLRGRITISRDTSKNQFSLKLSSVTAADTAVYYCATFYGAKGTLDYWGQGTLVTVSS VH 2: not shown VL: DIQLTQSPSSLSASVGDRVTITCKASGYILNRLAWYQQKPGKAPKLLISGATSLETGFPSRFSGSGSGKDYTLTISSLQPEDFATYYCQQYWSTPWTFGGGTKLEIK | EC50 (human ABCG2 [1]): 7.1 nM; EC50 (human PD-L1): 4.18 nM
2.2 | 5D3hVHv1 5D3hVKv1 (antibody, V domains shown) VH: EVQLQESGPGLVKPSETLSLTCTVSGFSITSDYAWNWIRQPPGKGLEWMGYINFDGGTTYNPSLRGRITISRDTSKNQFSLKLSSVTAADTAVYYCATFYGAKGTLDYWGQGTLVTVSS VL: DIQLTQSPSSLSASVGDRVTITCKASGYILNRLAWYQQKPGKAPKLLISGATSLETGFPSRFSGSGSGKDYTLTISSLQPEDFATYYCQQYWSTPWTFGGGTKLEIK | 
 | 5D3hVHv1DD KT9KK 5D3hVKv1 (bispecific antibody, V domains shown) VH 1: EVQLQESGPGLVKPSETLSLTCTVSGFSITSDYAWNWIRQPPGKGLEWMGYINFDGGTTYNPSLRGRITISRDTSKNQFSLKLSSVTAADTAVYYCATFYGAKGTLDYWGQGTLVTVSS VH 2: not shown VL: DIQLTQSPSSLSASVGDRVTITCKASGYILNRLAWYQQKPGKAPKLLISGATSLETGFPSRFSGSGSGKDYTLTISSLQPEDFATYYCQQYWSTPWTFGGGTKLEIK | EC50 (293T-G2KT9OX): 10.8 nM
2.2 | 5D3hVHv2 5D3hVKv1 (antibody, V domains shown) VH: EVQLQESGPGLVKPSETLSLTCTVSGFSITSDYAWNWIRQPPGKGLEWIGYINFDGGTTYNPSLRGRVTISRDTSKNQFSLKLSSVTAADTAVYYCATFYGAKGTLDYWGQGTLVTVSS VL: DIQLTQSPSSLSASVGDRVTITCKASGYILNRLAWYQQKPGKAPKLLISGATSLETGFPSRFSGSGSGKDYTLTISSLQPEDFATYYCQQYWSTPWTFGGGTKLEIK | 
1.5 | anti-ABCG2 antibody 5D3 (antibody, V domains shown) VH: QVQLQESGPGLVKPSQSLSLTCTVTGFSITSDYAWNWIRQFPGKKLEWMGYINFDGGTTYNPSLRGRISITRDTSKNQFFLQLRSVTPEDTATYYCATFYGAKGTLDYWGQGTSVTVSS VL: DIVLTQSPSSFSVSLGDRVTISCKASGYILNRLAWYQQKPGNAPRLLISGATSLETGFPSRFSGTGSGKDYTLSISSLQTEDVGTYYCQQYWSTPWTFGGGTKLEIR | 
